The values below come from the supplement of paper PMC9112550, “Optimization of the antimicrobial peptide Bac7 by deep mutational scanning” (BMC Biology, 2022).
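Also: peptides expressed intracellularly from a pBAD plasmid library in pooled LB shake-flask culture, induced with 0.3% L-arabinose, DNA abundance read by NGS, three biological replicates, DESeq2 with apeglm shrinkage.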

This data set relates to Escherichia coli TOP10. Put plainly: shrunken log2 fold change of peptide-encoding DNA abundance (4.5 h post-induction vs induction); higher = less antimicrobial activity (less host growth inhibition). As to conditions: time post-induction: 4.5 h; library: site-saturation at positions 5, 18, 19, 20.
In the case of RRIRLRPPRLPRPRPRPHAQPRP, the “shrunken log2 fold change” value was 0.133.
As for RRIRTRPPRLPRPRPRPAIHPRP, the “shrunken log2 fold change” value was -0.384.
Take RRIRLRPPRLPRPRPRPWFCPRP: the “shrunken log2 fold change” value was -0.195.
For RRIRHRPPRLPRPRPRPLLSPRP the value was -0.0464.
For RRIRIRPPRLPRPRPRPSAKPRP the value was -0.0328; for RRIRKRPPRLPRPRPRPHFLPRP, 0.12.
Turning to RRIRIRPPRLPRPRPRPFTDPRP, the “shrunken log2 fold change” value is 0.0112.
For RRIRIRPPRLPRPRPRPFEFPRP the value was -0.00107.
On to RRIRTRPPRLPRPRPRPWQAPRP, for which the “shrunken log2 fold change” value worked out at 0.177.
On to RRIRARPPRLPRPRPRPIRFPRP, for which the “shrunken log2 fold change” value was 0.247.
With RRIRWRPPRLPRPRPRPVFGPRP, the “shrunken log2 fold change” value came out at 0.159.
On to RRIRDRPPRLPRPRPRPHIHPRP, for which the “shrunken log2 fold change” value is -0.342.
Take RRIRRRPPRLPRPRPRPRQSPRP: the “shrunken log2 fold change” value was 0.243.
Regarding RRIRPRPPRLPRPRPRPMSCPRP, the “shrunken log2 fold change” value is -0.043.
Consider RRIRIRPPRLPRPRPRPIDWPRP, for which the “shrunken log2 fold change” value is -0.0878.
As to RRIRCRPPRLPRPRPRPKYKPRP, the “shrunken log2 fold change” value is -0.834.
With RRIRYRPPRLPRPRPRPADFPRP, the “shrunken log2 fold change” value is -0.0123.
With RRIRERPPRLPRPRPRPTAYPRP, the “shrunken log2 fold change” value is -0.166.
Take RRIRGRPPRLPRPRPRPLYAPRP: the “shrunken log2 fold change” value was found to be 0.64.
As for RRIRKRPPRLPRPRPRPGDRPRP, the “shrunken log2 fold change” value stood at 0.886.
On to RRIRFRPPRLPRPRPRPKYKPRP, for which the “shrunken log2 fold change” value was -0.63.
For the sequence RRIRCRPPRLPRPRPRPDYWPRP, the “shrunken log2 fold change” value was -0.437.
As to RRIRIRPPRLPRPRPRPIYDPRP, the “shrunken log2 fold change” value is -0.471.
As to RRIRLRPPRLPRPRPRPVNLPRP, the “shrunken log2 fold change” value is 0.0275.
On to RRIRMRPPRLPRPRPRPNEAPRP, for which the “shrunken log2 fold change” value came out at 0.326.
Consider RRIRFRPPRLPRPRPRPKMVPRP, for which the “shrunken log2 fold change” value was -0.0413.
With RRIRGRPPRLPRPRPRPLQCPRP, the “shrunken log2 fold change” value came to 0.904.
For RRIRDRPPRLPRPRPRPPDGPRP, the “shrunken log2 fold change” value came out at 0.577.
Regarding RRIRHRPPRLPRPRPRPCGMPRP, the “shrunken log2 fold change” value is -0.0838.
Consider RRIRYRPPRLPRPRPRPMPRPRP, for which the “shrunken log2 fold change” value was determined as 0.0558.
For RRIRNRPPRLPRPRPRPGTPPRP, the “shrunken log2 fold change” value came out at 0.608.
Regarding RRIRVRPPRLPRPRPRPKHIPRP, the “shrunken log2 fold change” value was -0.47.
In the case of RRIRHRPPRLPRPRPRPRPTPRP, the “shrunken log2 fold change” value came to 0.759.
Regarding RRIRFRPPRLPRPRPRPWCLPRP, the “shrunken log2 fold change” value is -0.17.
With RRIRMRPPRLPRPRPRPYDRPRP, the “shrunken log2 fold change” value worked out at 0.043.
For RRIRQRPPRLPRPRPRPDPLPRP the value was 0.00221.
On to RRIRARPPRLPRPRPRPERDPRP, for which the “shrunken log2 fold change” value turned out to be 0.613.
For RRIRQRPPRLPRPRPRPLLHPRP the value was -0.182; for RRIRARPPRLPRPRPRPQWDPRP, 0.00442; for RRIRERPPRLPRPRPRPEFRPRP, -0.274.
For the sequence RRIRSRPPRLPRPRPRPLGHPRP, the “shrunken log2 fold change” value was -0.051.
As for RRIRQRPPRLPRPRPRPRCFPRP, the “shrunken log2 fold change” value is -0.0694.
With RRIRPRPPRLPRPRPRPNHLPRP, the “shrunken log2 fold change” value was -0.601.
For RRIRERPPRLPRPRPRPSEHPRP, the “shrunken log2 fold change” value is -0.0752.
As to RRIRDRPPRLPRPRPRPEYPPRP, the “shrunken log2 fold change” value is -0.0367.
Turning to RRIRTRPPRLPRPRPRPKRGPRP, the “shrunken log2 fold change” value stood at 0.175.
With RRIRCRPPRLPRPRPRPTQVPRP, the “shrunken log2 fold change” value stood at 0.0177.
Regarding RRIRRRPPRLPRPRPRPVYIPRP, the “shrunken log2 fold change” value was -0.535.
For RRIRVRPPRLPRPRPRPQTVPRP the value was -0.0217; for RRIRCRPPRLPRPRPRPWDLPRP, 0.129.
